The assay concerns the target growth hormone (GH) receptor (mouse) (UniProt P16882). The assay can be described thus: cell-based or functional assay.

Take “recombinant rat growth hormone (from UniProt P01244 27-216) (ligand)”: the GH receptor mRNA expression levels in the liver (quantitative RT-PCR), 60 minutes after 30 µg subcutaneous rGH (% of level prior to administration) came to 65 and the IGF-I-BP3 mRNA expression levels in the liver (quantitative RT-PCR, % of control), 60 minutes after 30 µg subcutaneous rGH was determined as 250 % increase.

For the origin of these results see patent publication US20060153798A1.
